# Results reported in patent US20240301031A1 (JIANGSU HENGRUI PHARMACEUTICALS, published 2024).
# Key:
# [1] = target: T1, human BAFF (10056-HNCH, Sino biological) (human, UniProt Q9Y275 134-285); experiment: competition ELISA: biotin-labeled BAFF to coated TACI
# T1 construct: Bought protein
# Description: (§1) A receptor protein was diluted to 2 μg/mL with PBS at pH 7.4 (BasalMedia, B320) and added to a 96-well microplate (Corning, 3590) at 100 μL/well. The plate was incubated at 4° C. overnight. After the liquid was discarded, 200 μL of 1% Casein blocking solution (Thermo, 37528) was added to each well for blocking, and the plate was incubated at 37° C. for 2 h. After the blocking was completed, the blocking solution was discarded, and the plate was washed 3 times with a PBST buffer (PBS at pH 7.4 containing 0.1% tween-20) for later use. A biotin-labeled ligand protein at a fixed concentration was mixed with the antibody or fusion protein diluted in gradient, pre-incubated at 37° C. for 30 min, and added to a blocked microplate. The plate was incubated at 37° C. for 1.5 h. After the incubation was completed, the plate was washed 3 times with PBST. 100 μL of streptavidin-HRP (Invitrogen, 434323, diluted at a ratio of 1:4000) was added to each well, and the plate was incubated at 37° C. for 1 h. The supernatant was removed, and the plate was washed 3 times with PBST. […] The plate was read for absorbance values at 450 nm on a microplate reader, the curves for the inhibition of the binding of the ligands to the receptors were fitted with software, and the IC₅₀ values were calculated. […]
# [2] = target: T1, human BAFF (10056-HNCH, Sino biological); experiment: competition ELISA: biotin-labeled BAFF to coated BCMA
# Description: as §1
# [3] = target: T2, IL-12/23 p40 (Sino biological, 10052-H08H) (UniProt P29460 23-328); experiment: ELISA, IL-12/23 p40 coated
# T2 construct: Bought protein
# T2 sequence (looked up): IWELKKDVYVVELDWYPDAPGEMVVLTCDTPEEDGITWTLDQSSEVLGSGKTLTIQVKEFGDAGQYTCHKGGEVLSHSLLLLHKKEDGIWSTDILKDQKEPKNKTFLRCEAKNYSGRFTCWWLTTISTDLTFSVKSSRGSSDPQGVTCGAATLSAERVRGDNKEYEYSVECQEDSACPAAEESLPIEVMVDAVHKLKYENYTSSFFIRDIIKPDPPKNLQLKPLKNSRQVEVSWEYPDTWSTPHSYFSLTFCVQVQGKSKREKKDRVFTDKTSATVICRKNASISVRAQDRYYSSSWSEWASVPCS
# [4] = target: BAFF (R&D Systems, 7537-BF) (UniProt Q9Y275 134-285); experiment: cell-based or functional assay
# [5] = target: T1, human BAFF (10056-HNCH, Sino biological); experiment: competition ELISA: BAFF-R coated on the plate, biotin-labelled BAFF at a fixed concentration pre-incubated with the diluted sample, streptavidin-HRP, OD450 (blocked ligand-receptor pair: BAFF/BAFF-R)
# Description: as §1
# [6] = target: T3, human APRIL (5860-AP-010/CF, R&D Systems) (human, UniProt O75888 115-250, limits assumed); experiment: ELISA, APRIL coated
# T3 construct: Bought protein
# T3 sequence (looked up): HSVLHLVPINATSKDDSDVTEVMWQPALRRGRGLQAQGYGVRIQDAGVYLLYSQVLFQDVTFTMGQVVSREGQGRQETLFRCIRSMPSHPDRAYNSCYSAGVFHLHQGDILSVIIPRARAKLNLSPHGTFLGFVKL
# [7] = target: T4, cynomolgus monkey BAFF (BAF-CM412B, Kactus) (cynomolgus monkey, UniProt A0A2K5V2X4 134-285); experiment: SPR (Biacore), sample captured on Protein A, antigen flowed, 1:1 fit
# T4 construct: Bought protein
# Description: (§2) A certain amount of test sample was subjected to affinity capture by a biosensor chip Protein A (GE, 29127556), then antigens at a series of concentration gradients were allowed to flow on the surface of the chip. The reaction signals were detected in real time by using Biacore (GE, 8K) to obtain association and dissociation curves. After the dissociation was completed for each cycle, the biochip was washed and regenerated with a 10 mM glycine-hydrochloric acid solution at pH 1.5 (GE, BR-1003-54). The experimental data were fitted using BIAevaluation version 4.1, GE software with a 1:1 model to obtain affinity values. The related antigen proteins used in this assay are as follows: human IL-23 (CT048-H08H, Sino biological), human IL-12 (CT050-H08H, Sino biological), human BAFF (10056-HNCH, Sino biological), human APRIL (5860-AP-010/CF, R&D Systems), cynomolgus monkey p40 (10215-CL, R&D Systems), cynomolgus monkey BAFF (BAF-CM412B, Kactus), cynomolgus monkey APRIL (APR-CM410B, Kactus), mouse BAFF (BAF-M521y, Acro Biosystems), and mouse APRIL (7907-AP/CF, R&D Systems).
# [8] = target: T5, mouse BAFF (BAF-M521y, Acro Biosystems) (mouse, UniProt Q9WU72 127-309); experiment: as above
# T5 construct: Bought protein
# Description: as §2
# [9] = target: T1, human BAFF (10056-HNCH, Sino biological); experiment: as above
# Description: as §2
binder,measurement,setting,value
"Belimumab (antibody, human IgG1, lambda, V domains shown, Marketed control antibody; also called anti-BAFF antibody belimumab) VH: QVQLQQSGAEVKKPGSSVRVSCKASGGTFNNNAINWVRQAPGQGLEWMGGIIPMFGTAKYSQNFQGRVAITADESTGTASMELSSLRSEDTAVYYCARSRDLLLFPHHALSPWGRGTMVTVSS VL: SSELTQDPAVSVALGQTVRVTCQGDSLRSYYASWYQQKPGQAPVLVIYGKNNRPSGIPDRFSGSSSGNTASLTITGAQAEDEADYYCSSRDSSGNHWVFGGGTELTVLG",IC50,[1],0.567 nM
same,IC50,[2],0.458 nM
same,binding result,[3],no binding
same,IC50 (nM) for the inhibition of the BAFF-induced B cell proliferation,[4],0.146 nM
same,IC50 (read off the curve),[5],~0.7 nM
same,binding result,[6],no binding
same,Kd,[7],0.459 nM
same,koff,[7],0.000221 s⁻¹
same,kon,[7],481000 M⁻¹ s⁻¹
same,Kd,[8],0.104 nM
same,koff,[8],0.000144 s⁻¹
same,kon,[8],1.38e+06 M⁻¹ s⁻¹
same,Kd,[9],0.105 nM
same,koff,[9],0.000171 s⁻¹
same,kon,[9],1.64e+06 M⁻¹ s⁻¹
